According to article PMC12314576, “The Actin‐Binding Prolyl‐Isomerase Par17 Sustains Its Substrate Selectivity by Interdomain Allostery” (Proteins, 2025):
Starred links: 1 amine or outer side, 2 acyl side, 3 side chain; linkers in the order of their positions; H or OH if unused. *: point of attachment. pNA = O=[N+]([O-])c1ccc(N*)cc1; Suc = O=C(CCC(=O)[*:2])[*:1]

Biological target: Parvulin 17 (human) (UniProt Q9Y237)
Assay: NMR titration; substrate peptides added stepwise to 15N-labelled parvulin (300 μM, up to 3 mM peptide, 1:10); BEST-TROSY-HSQC at 20°C, 50 mM KPi buffer pH 6.7; microscopic (residue-specific) KD fitted with a 1:1 binding model

Chain of Parvulin 17 (human) (Q9Y237 other isoform, or with tags, fused parts or gaps): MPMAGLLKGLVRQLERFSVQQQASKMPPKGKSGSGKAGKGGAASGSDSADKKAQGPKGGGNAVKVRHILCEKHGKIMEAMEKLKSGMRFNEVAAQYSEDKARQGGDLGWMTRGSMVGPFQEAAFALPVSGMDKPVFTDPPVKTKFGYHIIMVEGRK

microscopic (residue-specific) KD, V116	Binder
24 mM	Suc-AKPF-pNA (SMILES C[C@H](NC(=O)CCC(=O)O)C(=O)N[C@@H](CCCCN)C(=O)N1CCC[C@H]1C(=O)N[C@@H](Cc1ccccc1)C(=O)Nc1ccc([N+](=O)[O-])cc1) [Suc-Ala-Lys-Pro-Phe-pNA]
17 mM	Suc-ARPF-pNA (SMILES C[C@H](NC(=O)CCC(=O)O)C(=O)N[C@@H](CCCNC(=N)N)C(=O)N1CCC[C@H]1C(=O)N[C@@H](Cc1ccccc1)C(=O)Nc1ccc([N+](=O)[O-])cc1) [Suc-Ala-Arg-Pro-Phe-pNA]
